Source: patent publication US6348573B1, “Compositions and methods for identifying apoptosis signaling pathway inhibitors and activators” (The Regents of the University of Michigan, priority 1998, dated 2002)

How the values were obtained:
[1] = target: T1, caspase-8 (Homo sapiens, UniProt Q14790); assay: Caspase-8 enzymatic assay (DEVD-AMC) on immunoprecipitates of ARC co-transfected cells; assay type: biochemical; conditions: immunoprecipitated caspase-8 from 293T cells, fluorogenic substrate DEVD-AMC
T1 construct: expressed in transfected cells; host or cells: human 293T cells
Procedure: [293T cell were co-transfected with pcDNA3-caspase-8-AU1 or pcDNA3-caspase-8-mut and pcDNA3-ARC-Flag or pcDNA3]. Caspase-8 in cell extracts was immunoprecipitated with anti-AU1 antibody and immunoprecipitates were incubated with the fluorogenic substrate DEVD-AMC. ◯:pcDNA3 alone; ●:pcDNA3-ARC-HA alone; □:pcDNA3-caspase-8-AU1 alone; ▪:pcDNA3-caspase-8-AU1 and pcDNA3-ARC-HA; ^Δ:pcDNA3-caspase-8-mt-AU1 alone.
β-galactosidase apoptosis assay and Caspase-8 enzymatic assay: 5×10^5 293T cells were transfected with 0.3 μg of pcDNA3-β-gal plus each expression plasmid in triplicate. Cells were fixed 16 hrs after transfection, stained for β-galactosidase and assayed for morphological features of apoptosis [M. Muira et al., Cell 75:653-660 (1993)]. Statistical significance was determined by one-way ANOVA followed by Student-Neuman-Keuls post-doc comparisons. For caspase-8 enzymatic assay, 1.5×10^6 human 293T cells were co-transfected with pcDNA3, pcDNA3-ARC-Flag, pcDNA3-caspase-8 and pcDNA3-caspase-8-mt by a calcium phosphate method. Total amount of transfected plasmid DNA was always 2.5 μg. 293T cells were harvested 18hr after transfection and lysed with 0.2% NP-40 isotonic lysis buffer. Tagged proteins were immunoprecipitated and caspase activity was measured as described [N. Inohara et al., Proc. Natl. Acad. Sci. USA 94:10717-10722 (1997)].

[2] = target: T2, CED-3 (Caenorhabditis elegans, UniProt P42573); assay: Co-immunoprecipitation of ARC with CED-3; assay type: binding, C. elegans; conditions: 293T lysates
T2 construct: expressed in transfected cells; host or cells: human 293T cells
T2 sequence (P42573 222-503): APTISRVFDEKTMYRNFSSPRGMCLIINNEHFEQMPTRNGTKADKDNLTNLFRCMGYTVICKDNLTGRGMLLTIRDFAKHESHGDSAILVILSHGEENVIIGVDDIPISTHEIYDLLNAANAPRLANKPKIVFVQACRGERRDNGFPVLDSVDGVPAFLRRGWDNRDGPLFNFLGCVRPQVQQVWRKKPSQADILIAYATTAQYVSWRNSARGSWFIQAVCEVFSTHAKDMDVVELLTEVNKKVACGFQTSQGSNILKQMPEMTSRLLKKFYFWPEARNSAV
Procedure: (§1) Briefly, 2 μg of pcDNA3 or pcDNA3-ARC-Flag or -HA was co-transfected with 3 μg of pcDNA3 or caspase expression plasmids. Total amount of transfected plasmid DNA was always 5 μg. 293T cells were harvested after 22 hr and lysed with 0.2% NP-40 isotonic lysis buffer [Z. N. Oltvai et al., Cell 74:609-619 (1993)]. For immunoprecipitation, […] of soluble protein was incubated with 10 μg/ml of polyclonal anti-Flag, monoclonal anti-AU1 or polyclonal anti-HA antibody for 2 hr at 4° C. and tagged proteins were immunoprecipitated with Protein A-Sepharose 4B (Zymed Laboratories Inc., San Francisco, Calif.). Immunoprecipitates were subjected to 12% SDS-polyacrylamide electrophoresis and immunoblotted with anti-Flag, anti-AU1 or anti-HA antibodies.

[3] = target: T3, caspase-3 (Homo sapiens, UniProt P42574); assay: Co-immunoprecipitation of ARC with caspase-3; assay type: binding; conditions: 293T lysates
T3 construct: expressed in transfected cells; host or cells: human 293T cells
T3 sequence (P42574 29-277): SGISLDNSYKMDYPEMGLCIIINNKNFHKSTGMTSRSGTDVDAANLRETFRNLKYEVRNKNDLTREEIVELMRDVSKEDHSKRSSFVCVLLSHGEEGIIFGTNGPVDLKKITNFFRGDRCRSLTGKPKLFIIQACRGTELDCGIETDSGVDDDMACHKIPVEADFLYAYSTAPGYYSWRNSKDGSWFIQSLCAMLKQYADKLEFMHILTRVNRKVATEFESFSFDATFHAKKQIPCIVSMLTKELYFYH
Procedure: as §1

[4] = target: T4, caspase-9 (Homo sapiens, UniProt P55211); assay: Co-immunoprecipitation of ARC with caspase-9; assay type: binding; conditions: 293T lysates
T4 construct: expressed in transfected cells; host or cells: human 293T cells
T4 sequence (P55211 1-416): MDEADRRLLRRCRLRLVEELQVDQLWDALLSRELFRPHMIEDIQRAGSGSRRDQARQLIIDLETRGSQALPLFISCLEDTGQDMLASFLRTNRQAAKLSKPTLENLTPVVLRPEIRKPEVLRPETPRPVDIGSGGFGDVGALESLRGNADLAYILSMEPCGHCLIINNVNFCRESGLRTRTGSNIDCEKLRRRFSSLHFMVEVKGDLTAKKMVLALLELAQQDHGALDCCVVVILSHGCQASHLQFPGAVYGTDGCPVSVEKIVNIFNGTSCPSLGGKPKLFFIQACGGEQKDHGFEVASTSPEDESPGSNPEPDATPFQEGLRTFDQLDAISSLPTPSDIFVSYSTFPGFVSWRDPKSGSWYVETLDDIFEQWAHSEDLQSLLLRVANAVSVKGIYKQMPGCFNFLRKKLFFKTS
Procedure: as §1

[5] = test system: FADD, RAIDD, Bcl-XL, and c-IAP-2; assay: Association of ARC with other apoptosis regulatory molecules; assay type: binding; conditions: data not shown
Procedure: as §1

[6] = target: T5, FADD (Fas-associated death domain protein), expressed in 293T cells (human, UniProt Q13158 1-208); assay: co-immunoprecipitation from co-transfected 293T cells (data not shown)
T5 construct: also called MORT-1; pcDNA3-FADD-AU1
T5 sequence (looked up): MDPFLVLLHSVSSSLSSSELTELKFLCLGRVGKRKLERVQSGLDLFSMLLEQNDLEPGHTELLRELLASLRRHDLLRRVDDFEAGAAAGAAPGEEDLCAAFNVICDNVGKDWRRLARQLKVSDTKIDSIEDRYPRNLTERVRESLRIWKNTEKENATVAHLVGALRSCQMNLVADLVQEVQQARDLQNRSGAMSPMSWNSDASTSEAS

[7] = target: Bcl-XL (UniProt Q07817 1-233); assay: as above
[8] = target: c-IAP-2 (UniProt Q13489 1-604); assay: as above
[9] = target: T6, C-caspase-8-HA (human caspase-8 amino acids 216-496, C-terminal HA tag) (human, UniProt Q14790-4 216-496); assay: co-immunoprecipitation of caspase-8 deletion mutants from 293T cells, immunoblot
T6 construct: range 216-496; The canonical UniProt entry has 479 residues; also called pcDNA3-C-caspase-8-HA; C-terminal region that contains the catalytic domain of caspase-8; not shown: C-terminal HA tag
T6 sequence (Q14790 199-479 limits assumed): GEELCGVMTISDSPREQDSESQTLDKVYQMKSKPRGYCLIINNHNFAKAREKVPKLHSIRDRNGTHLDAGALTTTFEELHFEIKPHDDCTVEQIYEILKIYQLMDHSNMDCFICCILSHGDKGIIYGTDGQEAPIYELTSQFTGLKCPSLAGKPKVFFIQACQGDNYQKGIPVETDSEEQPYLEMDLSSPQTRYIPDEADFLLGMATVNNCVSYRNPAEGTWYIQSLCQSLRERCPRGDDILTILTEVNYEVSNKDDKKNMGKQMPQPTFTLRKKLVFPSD

c-IAP-2, sequence (Q13489 whole entry, the tested form may be a part): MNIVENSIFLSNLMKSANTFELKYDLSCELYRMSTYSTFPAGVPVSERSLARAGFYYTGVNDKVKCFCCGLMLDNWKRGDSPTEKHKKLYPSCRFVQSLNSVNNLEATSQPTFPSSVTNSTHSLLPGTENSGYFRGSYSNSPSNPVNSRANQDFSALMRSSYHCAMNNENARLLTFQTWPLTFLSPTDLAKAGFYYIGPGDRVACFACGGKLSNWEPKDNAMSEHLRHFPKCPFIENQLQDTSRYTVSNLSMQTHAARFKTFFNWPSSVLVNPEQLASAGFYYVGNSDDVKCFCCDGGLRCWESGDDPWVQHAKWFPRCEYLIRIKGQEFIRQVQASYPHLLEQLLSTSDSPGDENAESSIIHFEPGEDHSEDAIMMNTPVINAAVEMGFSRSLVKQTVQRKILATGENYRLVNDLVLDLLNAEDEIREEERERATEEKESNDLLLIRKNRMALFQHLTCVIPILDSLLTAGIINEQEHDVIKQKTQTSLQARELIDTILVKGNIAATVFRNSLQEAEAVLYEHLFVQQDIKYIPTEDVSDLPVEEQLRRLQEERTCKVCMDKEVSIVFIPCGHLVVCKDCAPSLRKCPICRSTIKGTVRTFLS
T1 sequence (Q14790 1-496 isoform Q14790-4): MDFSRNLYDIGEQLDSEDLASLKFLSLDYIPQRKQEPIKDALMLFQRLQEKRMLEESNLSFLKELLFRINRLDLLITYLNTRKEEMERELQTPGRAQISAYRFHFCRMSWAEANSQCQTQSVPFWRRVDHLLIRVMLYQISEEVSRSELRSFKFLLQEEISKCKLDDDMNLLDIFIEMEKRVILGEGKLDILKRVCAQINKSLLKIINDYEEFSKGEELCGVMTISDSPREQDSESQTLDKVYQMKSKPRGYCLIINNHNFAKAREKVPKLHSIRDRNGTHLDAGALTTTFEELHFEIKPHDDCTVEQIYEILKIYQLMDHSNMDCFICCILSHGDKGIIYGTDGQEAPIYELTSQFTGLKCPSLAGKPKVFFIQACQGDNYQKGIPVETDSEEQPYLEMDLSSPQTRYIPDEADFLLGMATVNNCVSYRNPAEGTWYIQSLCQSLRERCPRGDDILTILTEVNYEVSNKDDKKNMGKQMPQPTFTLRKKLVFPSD
Bcl-XL, sequence (Q07817 whole entry): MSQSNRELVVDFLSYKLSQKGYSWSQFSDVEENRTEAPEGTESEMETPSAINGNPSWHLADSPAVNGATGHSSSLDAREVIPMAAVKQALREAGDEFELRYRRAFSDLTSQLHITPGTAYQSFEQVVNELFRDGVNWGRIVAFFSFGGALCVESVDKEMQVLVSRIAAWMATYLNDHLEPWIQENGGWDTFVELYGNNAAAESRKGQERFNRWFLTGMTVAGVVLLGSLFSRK

B1: human ARC (Apoptosis Repressor with CARD domain), C-terminally Flag- or HA-tagged (other)
chain: MGNAQERPSETIDRERKRLVETLQADSGLLLDALLARGVLTGPEYEALDALPDAERRVRRLLLLVQGKGEAACQELLRCAQRTAGAPDPAWDWQHVGPGYRDRSYDPPCPGHWTPEAPGSGTTCPGLPRASDPDEAGGPEGSEAVQSGTPEEPEPELEAEASKEAEPEPEPEPELEPEAEAEPEPELEPEPDPEPEPDFEERDESEDS
notes: Entire open reading frame expressed in 293T cells; The two tagged constructs are merged here; also called ARC-Flag; ARC-HA; not shown: C-terminal FLAG or HA tag
enzymatic activity of caspase-8 [1]: inhibited | co-immunoprecipitation with CED-3 [2]: co-immunoprecipitated | co-immunoprecipitation with caspase-3 [3]: not | co-immunoprecipitation with caspase-9 [4]: not | association with FADD, RAIDD, Bcl-XL, and c-IAP-2 [5]: did not associate | binding result [6]: no binding | binding result [7]: no binding | binding result [8]: no binding | binding result [9]: no binding
